From patent publication US7666644B2, “Glyphosate-N-acetyltransferase (GAT) genes” (Verdia, Inc., priority 2004, dated 2010)

B1: 22-15B4 M1MAA: 22-15B4 with two alanines inserted between Met1 and Ile2, SEQ ID NO:948 (protein)
chain: MAAIEVKPINAEDTYDLRHRVLRPNQPIEACMFDSDLMRSAFHLGGFYGGKLISVASFHQAEHTELQGQKQYQLRGVATLEGYREQKAGSSLVKHAEEILRKRGVDLLWCNARTSASGYYKKLGFSEQGEVFDTPPVGPHILMYKRIT
modifications: 22-15B4 M1MAA
B2: 22-15B4 M1MA: 22-15B4 with one alanine inserted between Met1 and Ile2, SEQ ID NO:946 (protein)
chain: MAIEVKPINAEDTYDLRHRVLRPNQPIEACMFDSDLMRSAFHLGGFYGGKLISVASFHQAEHTELQGQKQYQLRGVATLEGYREQKAGSSLVKHAEEILRKRGVDLLWCNARTSASGYYKKLGFSEQGEVFDTPPVGPHILMYKRIT
modifications: 22-15B4 M1MA
B3: GAT4620: altered gat coding sequence encoding 25-8H7 M1MA; Ala codon inserted, first 7 codons more frequently utilized, Ser 62 and Arg 111 changed (nucleic acid)
DNA: ATGGCTATTGAGGTTAAACCTATTAACGCAGAGGATACCTATGACCTAAGGCATAGAGTCCTCAGACCAAACCAGCCGATAGAAGCGTGTATGTTTGAAAGCGATTTAACGCGTAGTGCATTTCACTTAGGCGGCTTCTACGGGGGCAAACTGATTTCCGTCGCTTCATTCCACCAGGCCGAGCACTCTGAACTTCAAGGCAAGAAACAGTACCAGCTTCGAGGTGTGGCTACCTTGGAAGGTTATCGTGAGCAGAAGGCGGGTTCCAGTCTAGTTAAACACGCTGAAGAAATTCTACGTAAGAGGGGGGCGGACATGATTTGGTGTAATGCGAGGACATCTGCCTCAGGCTACTACAGAAAGTTAGGCTTCAGCGAGCAGGGAGAGGTATTCGACACGCCGCCAGTAGGACCTCACATCCTGATGTATAAAAGGATCACATAA
modifications: Synthetic nucleic acid sequence GAT4620; CDS (1)...(444): encodes 25-8H7 M1MA (SEQ ID NO:950)
notes: Ala codon inserted, first 7 codons more frequently utilized, Ser 62 and Arg 111 changed
B4: GAT4621: altered gat coding sequence encoding 25-8H7 M1MA; Ala codon inserted and more frequently utilized codons throughout (nucleic acid)
DNA: ATGGCTATTGAGGTTAAGCCTATCAACGCAGAGGATACCTATGACCTTAGGCATAGAGTGCTCAGACCAAACCAGCCTATCGAAGCCTGCATGTTTGAGTCTGACCTTACTAGGAGTGCATTTCACCTTGGTGGATTCTACGGAGGTAAACTGATTTCCGTGGCTTCATTCCACCAAGCTGAGCACTCTGAACTTCAAGGTAAGAAGCAGTACCAGCTTAGAGGTGTGGCTACCTTGGAAGGTTATAGAGAGCAGAAGGCTGGTTCCAGTCTCGTGAAACACGCTGAAGAGATTCTCAGAAAGAGAGGTGCTGACATGATCTGGTGTAATGCCAGGACATCTGCTTCAGGATACTACAGGAAGTTGGGATTCAGTGAGCAAGGAGAGGTGTTCGATACTCCTCCAGTTGGACCTCACATCCTGATGTATAAGAGGATCACATAA
modifications: Synthetic nucleic acid sequence GAT4621; CDS (1)...(444): encodes 25-8H7 M1MA (SEQ ID NO:950)
notes: Ala codon inserted and more frequently utilized codons throughout

Legend:
[1] = molecular target: T1, Bacillus licheniformis strain B6 glyphosate-N-acetyltransferase (GAT), native, SEQ ID NO:7 (Bacillus paralicheniformis, UniProt A0AAW6KBE1); test: Apparent KM and kcat of purified GAT (Example 2); assay type: biochemical; conditions: read-out: KM for Acetyl CoA; apparent; 5 mM glyphosate, 5 mM morpholine pH 7.7, 50% methanol; MS detection
T1 construct: untagged
Method: Lysis of the cells was effected by the addition of 1 ml of the following buffer to 0.2 g of cells: 25 mM HEPES, pH 7.3, 100 mM KCl and 10% methanol (HKM) plus 0.1 mM EDTA, 1 mM DTT, 1 mg/ml chicken egg lysozyme, and a protease inhibitor cocktail obtained from Sigma and used according to the manufacturer's recommendations. After 20 minutes incubation at room temperature (e.g., 22-25° C.), lysis was completed with brief sonication. The lysate was centrifuged and the supernatant was desalted by passage through Sephadex G25 equilibrated with HKM. Partial purification was obtained by affinity chromatography on CoA Agarose (Sigma). The column was equilibrated with HKM and the clarified extract was allowed to pass through under hydrostatic pressure.
Purification to homogeneity was obtained by gel filtration of the partially purified protein through Superdex 75 (Pharmacia).
Initial reaction rates were determined using mass spectrometric detection of N-acetyl glyphosate. Five μl were repeatedly injected into the instrument and reaction rates were obtained by plotting reaction time vs area of the integrated peak (FIG. 6).

[2] = test system: native or low activity GAT enzymes (glyphosate-N-acetyltransferase); test: Kinetics typical of native or low activity GAT enzymes (Example 4); assay type: biochemical; conditions: read-out: KM for acetyl CoA
[3] = Kinetics of GAT variants modified next to the initiating methionine; assay type: biochemical
Description: A second way to increase plant expression of microbial genes is to increase the G+C content near the initiating methionine residue. Naturally-occurring coding sequences in plants tend to contain two or three G and/or C residues immediately downstream of the ATG initiation codon (Joshi et al. (1997) Plant Mol. Biol. 35:993-1001). Introducing into the gat coding sequence one or two CG-rich codons immediately downstream of the ATG intitiation codon may create a more plant-like coding sequence and thus may enhance its expression in plants.

[4] = test system: Nicotiana benthamiana leaves; test: Transient expression by Agrobacterium infiltration, GAT protein by SDS-PAGE and blot with antiGAT polyclonal antibody; assay type: in vivo; conditions: infiltrated leaves, 3 days, as a percent of total protein
Method: A binary vector with a dMMV-gat-UBQ3 cassette in the T-DNA was transformed into competent Agrobacterium tumefaciens strain C58 cells by electroporation (McCormac et al., Mol. Biotechnol. 9:155-159, 1998). After growth on LB+40 ug/ml kanamycin plates for 2 days at 28° C., colonies were inoculated into LB+40 ug/ml kanamycin liquid medium and shaken overnight at 28° C. The Agrobacterium cells were collected by centrifugation at 4000 g for 10 minutes and then resuspended in a volume of 10 mM MgSO4 equivalent to the initial culture volume. This bacterial suspension was forced or “infiltrated” into the intercellular spaces of Nicotiana benthamiana leaves using a 1 ml plastic syringe (with no needle). By infiltrating 200-300 μl of bacterial suspension into each spot (typically 3-4 cm^2 in infiltrated area), 4 or more spots could be arranged on a single leaf still attached to the plant. In some cases the gat-containing Agrobacterium strain was diluted 5:1 or 10:1 with a second Agrobacterium strain lacking gat prior to infiltration. This dilution step has the effect of reducing the overall expression of the gat gene in the plant cells, thereby preventing saturation and allowing easier visualization of expression differences between variants and constructs. After 3 days the leaf material was ground, extracted in aqueous buffer, and centrifuged. […]

Molecule	kinetics compared to the unmodified enzyme [3]	level of GAT protein accumulated compared to the unmodified GAT25-8H7/4618 gene [4]	also measured
CC(=O)SCCNC(=O)CCNC(=O)[C@H](O)C(C)(C)COP(=O)(O)OP(=O)(O)OC[C@H]1O[C@@H](n2cnc3c(N)ncnc32)[C@H](O)[C@@H]1OP(=O)(O)O [acetyl CoA]	–	–	Km [1]: 2 µM; Km [2]: < 25 µM
B1	reduced kcat	–	–
B2	essentially unaltered kinetics	–	–
B3	–	comparable	–
B4	–	about two-fold greater	–
